Patent US20240424125A1 (Zymeworks, published 2024)

Tests used:
human FRα on cells [1] = molecular target: T1, human FRα on cells (human, UniProt P15328 25-234); experiment: apparent Kd, flow cytometry on IGROV-1 cells (endogenous FRα), as in Example 16
T1 construct: Transiently expressed on HEK293-6e, CHO-S or HEK293 microarray cells, or endogenous on JEG-3, HEC-1-A, IGROV-1, OVCAR-3, H2110, KB-HeLa and T-47D cells; also called human folate receptor alpha; FOLR1
Protocol: (§1) Briefly, cells were seeded at 50,000 cells/well in V-bottom 96-well plates and treated with antibody for 24 hours at 4° C. to prevent internalization. […] Following incubation and washing, fluorescence was detected by flow cytometry on a BD LSRFortessa™ Cell Analyzer (BD Biosciences, Franklin Lake, NJ) with 1,000 minimum events collected per well. AF647/APC-A GeoMean (fluorescence signal geometric mean, proportional to anti-Human AF647 binding) in live cell population was plotted using GraphPad Prism Version 9 (GraphPad Software, San Diego, CA).

[2] = molecular target: T2, recombinant His-tagged human FRα (ACROBiosystems) (human, UniProt P15328 25-233); experiment: BLI (Octet RED96) as in Example 8: antibody captured, His-tagged hFRα as analyte, mean of n=2
T2 construct: also called hFRα; hFRα antigen; not shown: His tag
T2 sequence (P15328 25-233 limits assumed): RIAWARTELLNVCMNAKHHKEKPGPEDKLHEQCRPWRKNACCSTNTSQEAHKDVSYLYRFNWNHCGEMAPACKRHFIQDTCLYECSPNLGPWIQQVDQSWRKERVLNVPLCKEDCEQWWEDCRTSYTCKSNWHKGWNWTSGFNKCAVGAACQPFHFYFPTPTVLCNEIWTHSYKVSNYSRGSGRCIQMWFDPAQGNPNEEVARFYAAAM
Protocol: (§2) The assay buffer used was KB buffer (kinetics buffer, composed of PBS pH 7.4, 0.1% BSA, 0.02% Tween 20, 0.05% sodium azide) supplemented with 0.06% Tween 20 and in some instances also with 1% BSA. The experiment was conducted at 30° C. with a shake speed of 1000 rpm.
(§3) Data analysis was performed using Data Analysis Software 9.0 (ForteBio, Fremont CA). The reference-subtracted binding curves were globally fitted to the 1:1 interaction model to generate the binding kinetic parameters kₒₙ, koff, and the dissociation constant KD.

[3] = molecular target: T2, recombinant His-tagged human FRα …; experiment: SPR (Biacore T200): hFRα amine-coupled to CM5 chip at medium antigen density, bivalent FSA injected, 1:1 Langmuir fit, mean of n=2
Protocol: (§4) CM5 Series S sensor chip, Biacore™ amine coupling kit (NHS, EDC and 1 M ethanolamine), and 10 mM sodium acetate buffers were purchased from GE Healthcare Life Science (Mississauga, ON, Canada). PBS running buffer with 0.05% Tween20 (PBST) was purchased from Teknova Inc. (Hollister, CA). Recombinant human FRα was purchased from ACRObiosystems (Newark, DE).
(§5) Screening of the variants for binding to hFRα antigen was conducted in two steps: capture of hFRα onto surface, followed by injection of three to five concentrations of variant. The hFRα surface was prepared on a CM5 Series S sensor chip by standard amine coupling methods as described by the manufacturer (GE Healthcare Life Science, Mississauga, ON, Canada). The immobilization of the hFRα was performed using Biacore™ T200 immobilization wizard with an amine coupling method aiming for resonance units (RUs) ranging from 5 to 200 RUs. Using multi-cycle kinetics, three to five concentrations of a two-fold dilution series of samples starting at 300 nM with a blank buffer control were injected at 50 uL/min for 180s with a 600s dissociation phase, resulting in a set of sensorgrams with a buffer blank reference. The hFRα surface was regenerated to prepare for the next injection cycle by one pulse of 10 mM glycine/HCl pH 1.5 for 30s at 30 uL/min. Blank-subtracted sensorgrams were analyzed using Biacore™ T200 Evaluation Software v3.0. The blank-subtracted sensorgrams were then fit to the 1:1 Langmuir binding model.

human FRα on cells [4] = molecular target: T1, human FRα on cells; experiment: apparent Kd, flow cytometry on JEG-3 cells (endogenous FRα), 24 h at 4°C
Protocol: as §1

[5] = molecular target: T2, recombinant His-tagged human FRα …; experiment: SPR (Biacore T200), high antigen density; end of the range tied to v30384 by Table 8.3
Protocol: as §5

[6] = molecular target: T2, recombinant His-tagged human FRα …; experiment: BLI (Octet RED96): antibody on anti-human IgG Fc capture biosensor, His-tagged hFRα as analyte, 1:1 global fit, mean of n=2
Outline: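 Run at 30° C with 1000 rpm shaking in kinetics buffer (PBS pH 7.4, 0.1% BSA, 0.02% Tween 20, 0.05% sodium azide) plus 0.06% Tween 20, sometimes 1% BSA. Reference-subtracted curves globally fitted to a 1:1 model, giving kon, koff and KD.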

human FRα on cells [7] = molecular target: T1, human FRα on cells; experiment: apparent Kd, flow cytometry on HEC-1-A cells (endogenous FRα), 24 h at 4°C
Protocol: as §1

[8] = molecular target: T2, recombinant His-tagged human FRα …; experiment: BLI (Octet RED96): antibody loaded on anti-human IgG Fc capture biosensors, His-tagged hFRα in solution. Six traces with fit lines plateau between about 0.06 and 0.36 nm during 0-400 s association and return to baseline by about 520 s. The legend prints the same globally fitted KD for all six traces (single run; the text prints only the mean of n=2).
Protocol: as §2, §3

human FRα on cells [9] = molecular target: T1, human FRα on cells; experiment: apparent Kd, flow cytometry on JEG-3 cells (endogenous FRα), as in Example 16
Protocol: as §1

human FRα on cells [10] = molecular target: T1, human FRα on cells; experiment: cell-based or functional assay
[11] = molecular target: T2, recombinant His-tagged human FRα …; experiment: SPR (Biacore T200): hFRα amine-coupled to CM5 chip at medium-low antigen density, bivalent FSA injected, 1:1 Langmuir fit, mean of n=2
Protocol: as §4, §5

[12] = molecular target: T2, recombinant His-tagged human FRα …; experiment: SPR (Biacore T200): hFRα amine-coupled to CM5 chip at high antigen density, bivalent FSA injected, 1:1 Langmuir fit, mean of n=2
Protocol: as §4, §5

[13] = molecular target: T2, recombinant His-tagged human FRα …; experiment: SPR (Biacore T200), high antigen density; end of the range tied to v30399 by Table 8.3
Protocol: as §5

T1 sequence (P15328 25-234 limits assumed): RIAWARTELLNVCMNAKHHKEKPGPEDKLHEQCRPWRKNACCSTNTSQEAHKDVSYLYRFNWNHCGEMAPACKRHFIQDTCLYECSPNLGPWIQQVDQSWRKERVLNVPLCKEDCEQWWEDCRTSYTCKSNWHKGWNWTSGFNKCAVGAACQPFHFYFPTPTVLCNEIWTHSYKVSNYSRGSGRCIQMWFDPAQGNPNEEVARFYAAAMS

B1: v30384 (antibody, human IgG1, kappa)
heavy 1: EVQLLESGGGLVQPGGSLRLSCAVSGFSLSSYGVSWVRQAPGKGLEWIGAVNSGGSAYYADSVKGRSTISRDNSKNTVYLQMNSLRAEDTAVYYCARSGSGYPMDYLAIWGQGTLVTVSSASTKGPSVFPLAPSSKSTSGGTAALGCLVKDYFPEPVTVSWNSGALTSGVHTFPAVLQSSGLYSLSSVVTVPSSSLGTQTYICNVNHKPSNTKVDKKVEPKSCDKTHTCPPCPAPELLGGPSVFLFPPKPKDTLMISRTPEVTCVVVDVSHEDPEVKFNWYVDGVEVHNAKTKPREEQYNSTYRVVSVLTVLHQDWLNGKEYKCKVSNKALPAPIEKTISKAKGQPREPQVYVYPPSRDELTKNQVSLTCLVKGFYPSDIAVEWESNGQPENNYKTTPPVLDSDGSFALVSKLTVDKSRWQQGNVFSCSVMHEALHNHYTQKSLSLSPG
heavy 2: not shown
light: DYQMTQSPSSVSASVGDRVTITCRASQSIGDWLAWYQQKPGKAPKLLIYEASTLASGVPSRFSGSGSGTDFTLTISSVQPEDAATYYCQQGYGRSNVDNIFGGGTKVEVKRTVAAPSVFIFPPSDEQLKSGTASVVCLLNNFYPREAKVQWKVDNALQSGNSQESVTEQDSKDSTYSLSSTLTLSKADYEKHKVYACEVTHQGLSSPVTKSFNRGEC
notes: Humanized full-size IgG1/kappa antibody with heterodimeric Fc (HetFc); also called humanized variant v30384; parental humanized
Q: For B1, which Kd (human FRα on cells [1]) is on record?
A: 1.38 nM

Q: What about the Kd [2] of the same binder?
A: 127 nM

Q: What about the Kd [3] of the same binder?
A: 2.58 nM

Q: What about the Kd (human FRα on cells [4]) of the same binder?
A: 0.31 nM

Q: What about the “fold lower KD in FSA compared to one-armed antibody (OAA) format” value [5] of the same binder?
A: 181 fold

Q: What about the Kd [6] of the same binder?
A: 110 nM

Q: What about the Kd (human FRα on cells [7]) of the same binder?
A: 0.07 nM

Q: What about the Kd [8] of the same binder?
A: 109 nM

Q: And the Kd (human FRα on cells [9])?
A: 0.5 nM

Q: And the “fold increase in internalized fluorescence compared to farletuzumab; IGROV-1 cells, 6-hour incubation, 5 nM” value (human FRα on cells [10])?
A: 19.1 fold

Q: And the “fold increase in internalized fluorescence compared to farletuzumab; IGROV-1 cells, 6-hour incubation, 25 nM” value (human FRα on cells [10])?
A: 6.1 fold

Q: What about the “fold increase in internalized fluorescence compared to farletuzumab; IGROV-1 cells, 24-hour incubation, 5 nM” value (human FRα on cells [10]) of the same binder?
A: 4.7 fold

Q: And the “fold increase in internalized fluorescence compared to farletuzumab; IGROV-1 cells, 24-hour incubation, 25 nM” value (human FRα on cells [10])?
A: 3.9 fold

Q: And the “fold increase in internalized fluorescence compared to mirvetuximab; IGROV-1 cells, 6-hour incubation, 5 nM” value (human FRα on cells [10])?
A: 2.6 fold

Q: What about the “fold increase in internalized fluorescence compared to mirvetuximab; IGROV-1 cells, 6-hour incubation, 25 nM” value (human FRα on cells [10]) of the same binder?
A: 3.3 fold

Q: And the “fold increase in internalized fluorescence compared to mirvetuximab; IGROV-1 cells, 24-hour incubation, 5 nM” value (human FRα on cells [10])?
A: 1.9 fold

Q: What about the “fold increase in internalized fluorescence compared to mirvetuximab; IGROV-1 cells, 24-hour incubation, 25 nM” value (human FRα on cells [10]) of the same binder?
A: 2.1 fold

Q: And the Kd [11]?
A: 3.76 nM

Q: What about the Kd [12] of the same binder?
A: 0.79 nM

B2: v30399 (antibody, human IgG1, kappa)
heavy 1: EVQVLESGGGLVQPGGSLRLSCAVSGFSLSSYGVSWVRQAPGKGLEWIGAVNSGGSAYYADWAKGRSTISRDNSKNTVYLQMNSLRAEDTAVYYCARSGSGYPMDYLAIWGQGTLVTVSSASTKGPSVFPLAPSSKSTSGGTAALGCLVKDYFPEPVTVSWNSGALTSGVHTFPAVLQSSGLYSLSSVVTVPSSSLGTQTYICNVNHKPSNTKVDKKVEPKSCDKTHTCPPCPAPELLGGPSVFLFPPKPKDTLMISRTPEVTCVVVDVSHEDPEVKFNWYVDGVEVHNAKTKPREEQYNSTYRVVSVLTVLHQDWLNGKEYKCKVSNKALPAPIEKTISKAKGQPREPQVYVYPPSRDELTKNQVSLTCLVKGFYPSDIAVEWESNGQPENNYKTTPPVLDSDGSFALVSKLTVDKSRWQQGNVFSCSVMHEALHNHYTQKSLSLSPG
heavy 2: not shown
light: DYQMTQSPSSVSASVGDRVTITCRASQSIGDWLAWYQQKPGKAPKLLIYEASTLASGVPSRFSGSGSGTDFTLTISSVQPEDAATYYCQQGYGRSNVDNIFGGGTKVEVKRTVAAPSVFIFPPSDEQLKSGTASVVCLLNNFYPREAKVQWKVDNALQSGNSQESVTEQDSKDSTYSLSSTLTLSKADYEKHKVYACEVTHQGLSSPVTKSFNRGEC
notes: Humanized IgG1/kappa, HetFc; also called 4bH4L
Q: What does the source list for B2?
A: Kd [3]: 2.67 nM; Kd [6]: 69 nM; fold lower KD in FSA compared to one-armed antibody (OAA) format [13]: 116 fold; Kd [11]: 3.71 nM; Kd [12]: 0.709 nM
